Where no end group is shown, it is not given here.
B1: Phage-2984 (peptide)
peptide: AGIRCVPEWMCLGF
notes: It was tested as crude clonal phage supernatant; also called Peptide-180 library clone
B2: Phage-2979 (peptide)
peptide: SEIACRPAWMCQWL
notes: as for B1
B3: Phage-2980 (peptide)
peptide: VEHWCRPEWMCAGF
notes: as for B1
B4: Phage-2983 (peptide)
peptide: PERMCRPLWMCEGF
notes: as for B1
B5: Phage-2985 (peptide)
peptide: EEVYCVPKWMCLGF
notes: as for B1
B6: Phage-2982 (peptide)
peptide: PMHACIPMWMCAGF
notes: as for B1
B7: Phage-2987 (peptide)
peptide: LLVRCQPEWMCVGF
notes: as for B1
B8: Phage-2981 (peptide)
peptide: DDRMCIPSWMCSGL
notes: as for B1
B9: Phage-2986 (peptide)
peptide: SQPMCIPVWMCRGF
notes: as for B1
B10: Phage-2988 (peptide)
peptide: FTAYCKPAWMCQGL
notes: as for B1
B11: Phage-2976 (peptide)
peptide: FEMLCKPAWMCSGF
notes: as for B1
B12: Phage-2989 (peptide)
peptide: TVVMCKPSWMCEGF
notes: as for B1
B13: Phage-2978 (peptide)
peptide: FGYACIPNWMCTVF
notes: as for B1
B14: Phage-2977 (peptide)
peptide: TELRCVPSWMCTGF
notes: as for B1
B15: Phage-2972 (peptide)
peptide: GDVYCKPAWMCDGF
modifications: cysteine pairing not given here; also: peptide displayed as fusion to phage pIII
notes: Clonal phage of the peptide-180 optimisation library, tested as crude phage supernatant; not shown: bacteriophage pIII coat protein to which the peptide is fused for display
B16: Phage-2974 (peptide)
peptide: VGAACIPDWMCVGF
modifications: cysteine pairing not given here; also: peptide displayed as fusion to phage pIII
notes: as for B15
B17: Phage-2973 (peptide)
peptide: VSPLCVPSWMCVGF
modifications: cysteine pairing not given here; also: peptide displayed as fusion to phage pIII
notes: as for B15
B18: Phage-2966 (peptide)
peptide: QTPVCIPEWMCTGF
modifications: cysteine pairing not given here; also: peptide displayed as fusion to phage pIII
notes: as for B15
B19: Phage-2970 (peptide)
peptide: VYPLCKPSWMCSGL
modifications: cysteine pairing not given here; also: peptide displayed as fusion to phage pIII
notes: as for B15
B20: Phage-2969 (peptide)
peptide: LDIWCVPAWMCHGF
modifications: cysteine pairing not given here; also: peptide displayed as fusion to phage pIII
notes: as for B15
B21: Phage-2967 (peptide)
peptide: GERYCVPAWMCAGL
modifications: cysteine pairing not given here; also: peptide displayed as fusion to phage pIII
notes: as for B15
B22: Phage-2968 (peptide)
peptide: WEAMCQPLWMCTGF
modifications: cysteine pairing not given here; also: peptide displayed as fusion to phage pIII
notes: as for B15
B23: Phage-2975 (peptide)
peptide: GVPMCVPDWMCHGL
modifications: cysteine pairing not given here; also: peptide displayed as fusion to phage pIII
notes: as for B15
B24: Phage-2971 (peptide)
peptide: DIPICRPQWMCIGF
modifications: cysteine pairing not given here; also: peptide displayed as fusion to phage pIII
notes: as for B15
B25: Phage-2990 (peptide)
peptide: TTIMCEPTWMCTGF
modifications: cysteine pairing not given here; also: peptide displayed as fusion to phage pIII
B26: Phage-2993 (peptide)
peptide: LAHMCIPAWMCAGL
modifications: cysteine pairing not given here; also: peptide displayed as fusion to phage pIII

These binders were tested against T1, Anti-PSMA Fab (biotinylated (site not stated)) (assay: phage ELISA; captured anti-PSMA Fab pre-incubated with PSMA antigen as competitor).
T1 construct: The biotinylated PSMA Fab was captured on neutravidin coated plates for the phage ELISA; also called 006 PSMA Fab
With B1 the “Phage binding ELISA signal, Anti-PSMA Fab with PSMA antigen” value was 0.0784.
B2 was tested, and the “Phage binding ELISA signal, Anti-PSMA Fab with PSMA antigen” value was 0.125.
For B3, the “Phage binding ELISA signal, Anti-PSMA Fab with PSMA antigen” value was 0.0893.
In the case of B4, the “Phage binding ELISA signal, Anti-PSMA Fab with PSMA antigen” value is reported as 0.11.
With B5 the “Phage binding ELISA signal, Anti-PSMA Fab with PSMA antigen” value was 0.0871.
In the case of B6, the “Phage binding ELISA signal, Anti-PSMA Fab with PSMA antigen” value is reported as 0.114.
For B7, the “Phage binding ELISA signal, Anti-PSMA Fab with PSMA antigen” value was 0.14.
B8 was tested, and the “Phage binding ELISA signal, Anti-PSMA Fab with PSMA antigen” value was 0.0851.
For B9, the “Phage binding ELISA signal, Anti-PSMA Fab with PSMA antigen” value was 0.109.
B10 was tested, and the “Phage binding ELISA signal, Anti-PSMA Fab with PSMA antigen” value was 0.0917.
With B11 the “Phage binding ELISA signal, Anti-PSMA Fab with PSMA antigen” value was 0.0857.
B12 was tested, and the “Phage binding ELISA signal, Anti-PSMA Fab with PSMA antigen” value was 0.083.
In the case of B13, the “Phage binding ELISA signal, Anti-PSMA Fab with PSMA antigen” value is reported as 0.122.
B14 was tested, and the “Phage binding ELISA signal, Anti-PSMA Fab with PSMA antigen” value was 0.0676.

The binders below were run against T2, PSMA Fab (biotinylated (site not stated)) (assay: phage ELISA, biotinylated anti-PSMA Fab on neutravidin plate, anti-M13 HRP detection).
T2 construct: Biotinylated PSMA Fab captured on neutravidin coated plates in the phage ELISA; also called Anti-PSMA Fab; 006 PSMA Fab
For B15, the “Phage binding ELISA signal, Anti-PSMA Fab” value was 2.25.
With B16 the “Phage binding ELISA signal, Anti-PSMA Fab” value was 2.25.
With B17 the “Phage binding ELISA signal, Anti-PSMA Fab” value was 2.25.
With B18 the “Phage binding ELISA signal, Anti-PSMA Fab” value was 2.26.
In the case of B19, the “Phage binding ELISA signal, Anti-PSMA Fab” value is reported as 2.26.
With B20 the “Phage binding ELISA signal, Anti-PSMA Fab” value was 2.26.
B21 was tested, and the “Phage binding ELISA signal, Anti-PSMA Fab” value was 2.26.
B22 was tested, and the “Phage binding ELISA signal, Anti-PSMA Fab” value was 2.26.
For B23, the “Phage binding ELISA signal, Anti-PSMA Fab” value was 2.24.
For B24, the “Phage binding ELISA signal, Anti-PSMA Fab” value was 2.25.

What follows are binders tested against T3, PSMA Fab (biotinylated (site not stated)) (assay: phage ELISA; PSMA Fab on plate pre-incubated with PSMA antigen as competitor, anti-M13 HRP detection;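 also: crude clonal phage supernatants added to Fab-coated wells still holding PSMA antigen in blocking buffer, with bound phage as read-out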).
T3 construct: also called Anti-PSMA Fab; 006 PSMA Fab
In the case of MLPWCVPHWMCDGF [Phage-3003], the “phage binding ELISA signal (Anti-PSMA Fab, PSMA antigen present)” value is reported as 0.132.
YEIRCEPKWMCMGF [Phage-2992] was tested, and the “phage binding ELISA signal (Anti-PSMA Fab, PSMA antigen present)” value was 0.0735.
For YQLLCKPEWMCVGF [Phage-3002], the “phage binding ELISA signal (Anti-PSMA Fab, PSMA antigen present)” value was 0.0672.
With IARMCVPEWMCQEL [Phage-2999] the “phage binding ELISA signal (Anti-PSMA Fab, PSMA antigen present)” value was 0.107.
With MSPRCVPMWMCDWL [Phage-2997] the “phage binding ELISA signal (Anti-PSMA Fab, PSMA antigen present)” value was 0.0821.
MMPLCMPTWMCEGF [Phage-3001] was tested, and the “phage binding ELISA signal (Anti-PSMA Fab, PSMA antigen present)” value was 0.075.
With B25 the “phage binding ELISA signal (Anti-PSMA Fab, PSMA antigen present)” value was 0.0683.
For AIAHCIPQWMCSGF [Phage-2995], the “phage binding ELISA signal (Anti-PSMA Fab, PSMA antigen present)” value was 0.0878.
In the case of PEALCMPPWMCHGF [Phage-2996], the “phage binding ELISA signal (Anti-PSMA Fab, PSMA antigen present)” value is reported as 0.0657.
With VVAHCVPSWMCTGF [Phage-2998] the “phage binding ELISA signal (Anti-PSMA Fab, PSMA antigen present)” value was 0.0901.
For FHVRCVPEWMCWGF [Phage-2991], the “phage binding ELISA signal (Anti-PSMA Fab, PSMA antigen present)” value was 0.153.
With EIPVCRPAWMCLGL [Phage-3000] the “phage binding ELISA signal (Anti-PSMA Fab, PSMA antigen present)” value was 0.0698.
With B26 the “phage binding ELISA signal (Anti-PSMA Fab, PSMA antigen present)” value was 0.104.
For LQSMCRPAWMCTGF [Phage-2994], the “phage binding ELISA signal (Anti-PSMA Fab, PSMA antigen present)” value was 0.0839.

What follows are binders tested against T1, Anti-PSMA Fab (assay: phage ELISA; biotinylated anti-PSMA Fab on neutravidin plate, anti-M13-HRP detection, no PSMA antigen).
Protocol: (§1) Clonal phage were harvested as crude supernatants and screened via standard ELISAs. […] Prior to the addition of clonal phage. wells were incubated with blocking buffer and PSMA antigen or blocking buffer alone. Without washing or aspirating, clonal phage supernatants were then added to the wells and incubated for a short time. Wells were then washed followed by detection of bound phage using a horse radish conjugated anti-M13 antibody.
In the case of B1, the “Phage binding ELISA signal, Anti-PSMA Fab” value is reported as 2.23.
For B2, the “Phage binding ELISA signal, Anti-PSMA Fab” value was 2.24.
For B3, the “Phage binding ELISA signal, Anti-PSMA Fab” value was 2.24.
With B4 the “Phage binding ELISA signal, Anti-PSMA Fab” value was 2.23.
B5 was tested, and the “Phage binding ELISA signal, Anti-PSMA Fab” value was 2.23.
With B6 the “Phage binding ELISA signal, Anti-PSMA Fab” value was 2.23.
In the case of B7, the “Phage binding ELISA signal, Anti-PSMA Fab” value is reported as 2.23.
B8 was tested, and the “Phage binding ELISA signal, Anti-PSMA Fab” value was 2.24.
B9 was tested, and the “Phage binding ELISA signal, Anti-PSMA Fab” value was 2.23.
For B10, the “Phage binding ELISA signal, Anti-PSMA Fab” value was 2.22.
With B11 the “Phage binding ELISA signal, Anti-PSMA Fab” value was 2.24.
B12 was tested, and the “Phage binding ELISA signal, Anti-PSMA Fab” value was 2.22.
B13 was tested, and the “Phage binding ELISA signal, Anti-PSMA Fab” value was 2.24.
With B14 the “Phage binding ELISA signal, Anti-PSMA Fab” value was 2.24.

The binders below were run against T2, PSMA Fab (assay: phage ELISA, captured anti-PSMA Fab pre-incubated with PSMA antigen as competitor, anti-M13 HRP detection).
Protocol: as §1
B15 was tested, and the “Phage binding ELISA signal, Anti-PSMA Fab in presence of PSMA antigen” value (“Phage binding ELISA signal … of PSMA antigen” for short) was 0.0762.
With B16 the “Phage binding ELISA signal … of PSMA antigen” value was 0.0732.
For B17, the “Phage binding ELISA signal … of PSMA antigen” value was 0.108.
In the case of B18, the “Phage binding ELISA signal … of PSMA antigen” value is reported as 0.091.
B19 was tested, and the “Phage binding ELISA signal … of PSMA antigen” value was 0.0843.
In the case of B20, the “Phage binding ELISA signal … of PSMA antigen” value is reported as 0.0712.
B21 was tested, and the “Phage binding ELISA signal … of PSMA antigen” value was 0.106.
B22 was tested, and the “Phage binding ELISA signal … of PSMA antigen” value was 0.0968.
B23 was tested, and the “Phage binding ELISA signal … of PSMA antigen” value was 0.073.
In the case of B24, the “Phage binding ELISA signal … of PSMA antigen” value is reported as 0.0617.

These binders were tested against T3, PSMA Fab (assay: phage ELISA; biotinylated PSMA Fab on neutravidin plate, clonal phage supernatant, anti-M13 HRP detection;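 also: wells preincubated with PSMA antigen in blocking buffer or with blocking buffer only before clonal phage were added for a short incubation, then bound phage detected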).
Protocol: as §1
With MLPWCVPHWMCDGF [Phage-3003] the “Phage binding ELISA signal, Anti-PSMA Fab” value was 2.21.
YEIRCEPKWMCMGF [Phage-2992] was tested, and the “Phage binding ELISA signal, Anti-PSMA Fab” value was 2.22.
With YQLLCKPEWMCVGF [Phage-3002] the “Phage binding ELISA signal, Anti-PSMA Fab” value was 2.21.
In the case of IARMCVPEWMCQEL [Phage-2999], the “Phage binding ELISA signal, Anti-PSMA Fab” value is reported as 2.22.
MSPRCVPMWMCDWL [Phage-2997] was tested, and the “Phage binding ELISA signal, Anti-PSMA Fab” value was 2.22.
MMPLCMPTWMCEGF [Phage-3001] was tested, and the “Phage binding ELISA signal, Anti-PSMA Fab” value was 2.22.
B25 was tested, and the “Phage binding ELISA signal, Anti-PSMA Fab” value was 2.22.
For AIAHCIPQWMCSGF [Phage-2995], the “Phage binding ELISA signal, Anti-PSMA Fab” value was 2.22.
PEALCMPPWMCHGF [Phage-2996] was tested, and the “Phage binding ELISA signal, Anti-PSMA Fab” value was 2.22.
With VVAHCVPSWMCTGF [Phage-2998] the “Phage binding ELISA signal, Anti-PSMA Fab” value was 2.22.
For FHVRCVPEWMCWGF [Phage-2991], the “Phage binding ELISA signal, Anti-PSMA Fab” value was 2.22.
With EIPVCRPAWMCLGL [Phage-3000] the “Phage binding ELISA signal, Anti-PSMA Fab” value was 2.22.
B26 was tested, and the “Phage binding ELISA signal, Anti-PSMA Fab” value was 2.22.
LQSMCRPAWMCTGF [Phage-2994] was tested, and the “Phage binding ELISA signal, Anti-PSMA Fab” value was 2.22.
